Where “and” joins values, the source holds several entries; their conditions need not be identical. Equal values may be shown once. Each block holds one binder with its values, some of them ahead of it.
Columns and labels:
soluble human TNFα = soluble human TNFα (human, UniProt P01375 77-233); assay: cell-based or functional assay
human serum albumin [1] = target: T1, human serum albumin (human, UniProt P02768 25-609); assay: SPR on HSA (Example 2; same values as in Table 13)
T1 construct: Immobilised by amine coupling on a C1 chip; also called HSA
T1 sequence (P02768 25-609 limits assumed): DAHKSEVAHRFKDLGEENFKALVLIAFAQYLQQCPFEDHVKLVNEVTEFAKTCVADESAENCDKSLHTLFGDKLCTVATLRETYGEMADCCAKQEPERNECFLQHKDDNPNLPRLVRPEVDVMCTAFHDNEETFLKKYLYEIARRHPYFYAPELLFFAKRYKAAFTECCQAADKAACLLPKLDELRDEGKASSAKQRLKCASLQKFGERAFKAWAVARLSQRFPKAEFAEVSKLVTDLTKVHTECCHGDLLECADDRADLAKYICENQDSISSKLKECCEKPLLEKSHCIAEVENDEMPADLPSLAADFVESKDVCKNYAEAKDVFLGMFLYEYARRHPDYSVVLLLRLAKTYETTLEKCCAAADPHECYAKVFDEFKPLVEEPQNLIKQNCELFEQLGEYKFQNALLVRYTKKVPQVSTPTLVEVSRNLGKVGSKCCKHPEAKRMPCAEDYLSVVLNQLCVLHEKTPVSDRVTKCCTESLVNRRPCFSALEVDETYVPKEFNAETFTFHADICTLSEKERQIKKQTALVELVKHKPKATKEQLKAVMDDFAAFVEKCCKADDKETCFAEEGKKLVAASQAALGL

human serum albumin [2] = target: T1, human serum albumin; assay: SPR Biacore 8K+, HSA amine-coupled on C1 chip, ISVD analyte, 1:1 fit
CD8 = assay: kinetics, method not stated in Example 3
[3] = target: T2, recombinant human CEACAM5 (human, UniProt P06731 35-685, limits assumed); assay: SPR on CEACAM5 (Example 2; same values as in Table 13)
T2 construct: Immobilised by amine coupling on a CM5 chip
T2 sequence (looked up): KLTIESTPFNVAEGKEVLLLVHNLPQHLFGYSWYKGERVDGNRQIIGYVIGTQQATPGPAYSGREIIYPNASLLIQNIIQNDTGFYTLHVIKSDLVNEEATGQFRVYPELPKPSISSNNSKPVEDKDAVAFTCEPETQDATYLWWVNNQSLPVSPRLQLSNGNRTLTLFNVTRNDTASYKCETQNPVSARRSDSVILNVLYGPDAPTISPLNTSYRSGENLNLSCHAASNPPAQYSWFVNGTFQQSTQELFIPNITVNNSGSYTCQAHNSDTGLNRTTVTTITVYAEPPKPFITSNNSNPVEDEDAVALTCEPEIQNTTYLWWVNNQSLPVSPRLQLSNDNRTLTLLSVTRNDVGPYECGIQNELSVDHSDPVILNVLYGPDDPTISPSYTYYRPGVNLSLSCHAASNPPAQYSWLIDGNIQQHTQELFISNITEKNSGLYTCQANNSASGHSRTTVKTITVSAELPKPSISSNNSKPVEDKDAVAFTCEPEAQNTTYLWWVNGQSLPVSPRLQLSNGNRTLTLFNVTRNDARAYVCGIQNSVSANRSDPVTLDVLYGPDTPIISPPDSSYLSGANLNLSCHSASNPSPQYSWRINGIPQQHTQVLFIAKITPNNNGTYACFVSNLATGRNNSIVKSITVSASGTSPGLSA

[4] = target: T2, recombinant human CEACAM5; assay: SPR Biacore 8K+, CEACAM5 amine-coupled on CM5, ISVD analyte, 1:1 fit

Chain of soluble human TNFα (P01375 77-233 limits assumed): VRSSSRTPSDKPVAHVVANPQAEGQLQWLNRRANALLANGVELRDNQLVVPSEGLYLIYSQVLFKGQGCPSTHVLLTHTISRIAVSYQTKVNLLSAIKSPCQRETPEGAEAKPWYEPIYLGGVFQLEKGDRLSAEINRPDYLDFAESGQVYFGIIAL

B2: T031200258 (VHH)
VHH: DVQLVESGGGVVQPGGSLKLSCTASGFTFSTADMGWFRQAPGKGREFVARISGIDGTTYYDEPVKGRFTISRDNSKNTVYLQMNSLKPEDTALYYCRSPRYADQWSAYDYWGKGTLVTVSS
IC50, inhibition of human TNFα-induced NFkB activation (HEK293_NFkB-NLucP Nano luciferase reporter) (soluble human TNFα): 6.09e-11 M (inferred; column head prints 'Average of ka (1/Ms)')

B3: T031200260 (VHH)
VHH: DVQLVESGGGVVQPGGSLKLSCTASGFTFSTADMGWFRQAPGKGREFVARISGIDGTTYYDEPVKGRFTISRDKSKNTVYLQMNSLKPEDTALYYCRSPRYADQWSAYDYWGKGTLVTVSS
IC50, inhibition of human TNFα-induced NFkB activation (HEK293_NFkB-NLucP Nano luciferase reporter) (soluble human TNFα): 5.34e-11 M (inferred; column head prints 'Average of ka (1/Ms)')

B4: T031200257 (VHH)
VHH: DVQLVESGGGVVQPGGSLKLSCTASGFTFSTADMGWFRQAPGKGREFVARISGIDGTTYYDEPVKGRFTISRDKSKNTVYLQMNSLKPEDTALYYCRSPRYADQWSAYDYWGQGTLVTVSS
IC50, inhibition of human TNFα-induced NFkB activation (HEK293_NFkB-NLucP Nano luciferase reporter) (soluble human TNFα): 4.93e-11 M (inferred; column head prints 'Average of ka (1/Ms)')

B5: A016600058 (VHH)
VHH: DVQLVESGGGVVQPGGSLRLSCTASGFTFSTADMGWFRQAPGKGREFVARISGIDGTTYYDEPVKGRFTISRDNSKNTVYLQMNSLRPEDTALYYCRSPRYADQWSAYDYWGQGTLVTVSS
IC50, inhibition of human TNFα-induced NFkB activation (HEK293_NFkB-NLucP Nano luciferase reporter) (soluble human TNFα): 3.86e-11 M (inferred; column head prints 'Average of ka (1/Ms)') and 2.97e-11 M (inferred; column head prints 'Average of ka (1/Ms)')

B6: T031200259 (VHH)
VHH: DVQLVESGGGVVQPGGSLKLSCTASGFTFSTADMGWFRQAPGKGREFVARISGIDGTTYYDEPVKGRFTISKDNSKNTVYLQMNSLKPEDTALYYCRSPRYADQWSAYDYWGKGTLVTVSS
IC50, inhibition of human TNFα-induced NFkB activation (HEK293_NFkB-NLucP Nano luciferase reporter) (soluble human TNFα): 4.82e-11 M (inferred; column head prints 'Average of ka (1/Ms)')

B7: T028501805 (VHH)
VHH: EVQLVESGGGVVQPGGSLRLSCAASGFTFRSFGMSWVRQAPGKGPEWVSSISGSGSDTLYADSVKGRFTISRDNSKNTLYLQMNSLRPEDTALYYCTIGGSLSRSSQGTLVTVSS
notes: also called ALB00622; HSA006A06(K83R)
Kd (human serum albumin [1]): 1.28 nM
koff (human serum albumin [1]): 0.000992 s⁻¹
kon (human serum albumin [1]): 772000 M⁻¹ s⁻¹
Kd (human serum albumin [2]): 1.28 nM
koff (human serum albumin [2]): 0.000992 s⁻¹
kon (human serum albumin [2]): 772000 M⁻¹ s⁻¹

B10: T028501789 (VHH)
VHH: EVQLVESGGGVVQPGGSLRLSCAASGLTFSTYTMGWFRQAPGKEREFVAAIIWSGSNTYYADSVKGRFTISRDNAKNTVYLQMNSLRPEDTALYYCAAQHFGPIGLTTRGYHYWGQGTLVTVSS
notes: also called A031500384; A0315007E07(L11V, S76N, N82bS, E83R, V89L, H91Y, N101H)
Kd [3]: 1.24 nM
koff [3]: 0.000885 s⁻¹
kon [3]: 716000 M⁻¹ s⁻¹
Kd [4]: 1.24 nM
koff [4]: 0.000885 s⁻¹
kon [4]: 716000 M⁻¹ s⁻¹

The remaining lines, values ahead:

IC50, inhibition of human TNFα-induced NFkB activation (HEK293_NFkB-NLucP Nano luciferase reporter) (soluble human TNFα): 1.92e-10 M (inferred; column head prints 'Average of ka (1/Ms)')
B1: T031200263 (VHH)
VHH: DVQLVESGGGVVQPGGSLKLSCTASGFTFSTADMGWFRQAPGKGKEFVARISGIDGTTYYDEPVKGRFTISKDKSKNTVYLQMNSLKPEDTALYYCRSPRYADQWSAYDYWGKGTLVTVSS

Kd (CD8): 0.113 nM
koff (CD8): 0.000418 s⁻¹
kon (CD8): 3.69e+06 M⁻¹ s⁻¹
B8: A044301298 (VHH)
VHH: EVQLVESGGGVVQPGGSLRLSCAASGFTFEDYAIGWFRQAPGREREEVSCIRTYDEQTYYADSVRGRFTISRDNARNTVSLQMNSLRPEDTALYYCAAGSYYACAYYSRPDPSEGHVDLDYWGQGTLVTVSS

Kd (CD8): 0.122 nM
koff (CD8): 0.000412 s⁻¹
kon (CD8): 3.37e+06 M⁻¹ s⁻¹
B9: A044301152 (VHH)
VHH: EVQLVESGGGVVQPGGSLRLSCAASGFTFEDYAIGWFRQAPGKEREEVSCIRTYDEQTYYADSVKGRFTISRDNAKNTVSLQMNSLRPEDTALYYCAAGSYYACAYYSRPDPSEGHVDLDYWGQGTLVTVSS
